Data set [1] has as its target MidT substrate domain fused to the omega subunit of RNA polymerase.
The target in data set [2] is p130cas substrate domain fused to the omega subunit of RNA polymerase.

B1: protein tyrosine phosphatase 1B (PTP1B) (protein)
chain: MEMEKEFEQIDKSGSWAAIYQDIRHEASDFPCRVAKLPKNKNRNRYRDVSPFDHSRIKLHQEDNDYINASLIKMEEAQRSYILTQGPLPNTCGHFWEMVWEQKSRGVVMLNRVMEKGSLKCAQYWPQKEEKEMIFEDTNLKLTLISEDIKSYYTVRQLELENLTTQETREILHFHYTTWPDFGVPESPASFLNFLFKVRESGSLSPEHGPVVVHSSAGIGRSGTFCLADTCLLLMDKRKDPSSVDIKKVLLEMRKFRMGLIQTADQLRFSYLAVIEGAKFIMGDSSVQDQWKELSHEDLEPPPEHIPPPPRPPKRILEPHN
On to B1, for which the “difference in luminescence between systems containing PTP1B or PTP1B (C215S)” value in data set [1] is reported as “The difference in luminescence between systems containing PTP1B or PTP1B (C215S) was greatest for MidT”.

B2: Src kinase (protein)
chain: MSKPQTQGLAKDAWEIPRESLRLEVKLGQGCFGEVWMGTWNGTTRVAIKTLKPGTMSPEAFLQEAQVMKKLRHEKLVQLYAVVSEEPIYIVTEYMSKGSLLDFLKGETGKYLRLPQLVDMAAQIASGMAYVERMNYVHRDLRAANILVGENLVCKVADFGLARLIEDNEYTARQGAKFPIKWTAPEAALYGRFTIKSDVWSFGILLTELTTKGRVPYPGMVNREVLDQVERGYRMPCPPECPESLHDLMCQCWRKEPEERPTFEYLQAFLEDYFTSTEPQYQPGENL
With B2, the “luminescence (LuxAB), bacterial two-hybrid system with induced Src” value was “luminescence increased most prominently for p130cas and MidT” in data set [2]; “luminescence increased most prominently for p130cas and MidT” in data set [1].
